The source of these data is patent US20250222126A1 (ARIZONA BOARD OF REGENTS ON BEHALF OF ARIZONA STATE …, published 2025).

The target in the test is spike wt.

B1: Tri-pdbody (designed binder)
LCB1 mini-binder coupled to a DNA handle that is hybridised to an arm of a 3-helix-bundle DNA nanostructure: DKEWILQKIYEIMRLLDELGHAEASMRVSDLIYEFMKKGDERLLEEAERLLEEVER
notes: also called 3-Arm; 3arm
In the case of B1, binding was characterised by a dissociation constant (Kd) of 132 pM.
